Source: the supplement of paper PMC9112550, “Optimization of the antimicrobial peptide Bac7 by deep mutational scanning” (BMC Biology, 2022)

Tested on: Escherichia coli TOP10
Test: shrunken log2 fold change of peptide-encoding DNA abundance (4.5 h post-induction vs induction); higher = less antimicrobial activity (less host growth inhibition)
Details: time post-induction: 4.5 h; library: site-saturation at positions 5, 18, 19, 20
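Note: peptides expressed intracellularly from a pBAD plasmid library in pooled LB shake-flask culture, induced with 0.3% L-arabinose, DNA abundance read by NGS, three biological replicates, DESeq2 with apeglm shrinkage.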

Sequence | shrunken log2 fold change
RRIRFRPPRLPRPRPRPTSLPRP | -1.17
RRIRFRPPRLPRPRPRPDEIPRP | -0.022
RRIRFRPPRLPRPRPRPSCYPRP | -0.839
RRIRMRPPRLPRPRPRPVLMPRP | 0.229
RRIRQRPPRLPRPRPRPAPRPRP | 0.966
RRIRYRPPRLPRPRPRPDNDPRP | -0.17
RRIRRRPPRLPRPRPRPQVDPRP | 0.237
RRIRARPPRLPRPRPRPWDHPRP | -0.00959
RRIRTRPPRLPRPRPRPFGRPRP | 0.0376
RRIRMRPPRLPRPRPRPPKLPRP | 0.343
RRIRLRPPRLPRPRPRPKMPPRP | -0.0152
RRIRYRPPRLPRPRPRPLRPPRP | 0.786
RRIRLRPPRLPRPRPRPMIDPRP | -0.0169
RRIRLRPPRLPRPRPRPEITPRP | -0.11
RRIRDRPPRLPRPRPRPCRVPRP | 0.0479
RRIRDRPPRLPRPRPRPAWNPRP | 0.428
RRIRQRPPRLPRPRPRPSNMPRP | -0.459
RRIRCRPPRLPRPRPRPDEPPRP | 0.189
RRIRRRPPRLPRPRPRPWFVPRP | 0.214
RRIRLRPPRLPRPRPRPLHHPRP | -0.533
RRIRQRPPRLPRPRPRPRSEPRP | 0.234
RRIRQRPPRLPRPRPRPIHIPRP | -0.187
RRIRCRPPRLPRPRPRPCEEPRP | 0.207
RRIRLRPPRLPRPRPRPYIVPRP | -0.0573
RRIRCRPPRLPRPRPRPDGMPRP | -0.239

Sequence | shrunken log2 fold change
RRIRLRPPRLPRPRPRPTHSPRP | 0.122
RRIRGRPPRLPRPRPRPQDGPRP | 0.0108
RRIRNRPPRLPRPRPRPADKPRP | 0.0545
RRIRLRPPRLPRPRPRPAFAPRP | 0.368
RRIRMRPPRLPRPRPRPEDCPRP | 0.0737
RRIRNRPPRLPRPRPRPCFCPRP | -0.337
RRIRLRPPRLPRPRPRPTAGPRP | 0.53
RRIRNRPPRLPRPRPRPQGWPRP | 0.114
RRIRDRPPRLPRPRPRPAHEPRP | -0.0156
RRIRYRPPRLPRPRPRPVMSPRP | -0.233
RRIRSRPPRLPRPRPRPCSHPRP | -0.174
RRIRNRPPRLPRPRPRPGCEPRP | 0.212
RRIRIRPPRLPRPRPRPIIRPRP | -0.453
RRIRQRPPRLPRPRPRPKQQPRP | -0.141
RRIRFRPPRLPRPRPRPLEKPRP | -0.14
RRIRGRPPRLPRPRPRPNHYPRP | -0.416
RRIRHRPPRLPRPRPRPRYWPRP | 0.319
RRIRLRPPRLPRPRPRPHRTPRP | -0.0946
RRIRYRPPRLPRPRPRPKTAPRP | -0.0087
RRIRTRPPRLPRPRPRPVKCPRP | -0.0123
RRIRTRPPRLPRPRPRPGHLPRP | -0.377
RRIRGRPPRLPRPRPRPYCTPRP | -0.0267
RRIRGRPPRLPRPRPRPIKIPRP | 0.302
RRIRKRPPRLPRPRPRPKFRPRP | 0.00803
RRIRIRPPRLPRPRPRPMSKPRP | -0.332

Sequence | shrunken log2 fold change
RRIRKRPPRLPRPRPRPVFRPRP | 0.278
RRIRCRPPRLPRPRPRPHELPRP | -0.336
RRIRARPPRLPRPRPRPQHDPRP | -0.117
RRIRTRPPRLPRPRPRPFSNPRP | -0.405
RRIRSRPPRLPRPRPRPNLCPRP | -0.0929
RRIRRRPPRLPRPRPRPEHPPRP | 3.32
RRIRRRPPRLPRPRPRPFGHPRP | 0.0281
RRIRLRPPRLPRPRPRPNPHPRP | -0.07
RRIRLRPPRLPRPRPRPVLQPRP | 0.195
RRIRNRPPRLPRPRPRPRMNPRP | 0.00678
RRIRYRPPRLPRPRPRPFAHPRP | -0.00804
RRIRYRPPRLPRPRPRPLTTPRP | -0.404
RRIRDRPPRLPRPRPRPAYCPRP | 0.00854
RRIRYRPPRLPRPRPRPRRGPRP | 0.114
RRIRRRPPRLPRPRPRPEVDPRP | 0.0409
RRIRCRPPRLPRPRPRPFVAPRP | -0.159
RRIRIRPPRLPRPRPRPYTIPRP | -0.605
RRIRMRPPRLPRPRPRPDAHPRP | 0.0846
RRIRLRPPRLPRPRPRPQCTPRP | 0.0199
RRIRDRPPRLPRPRPRPGDQPRP | 0.282
RRIRLRPPRLPRPRPRPVWPPRP | 0.422
RRIRSRPPRLPRPRPRPMTSPRP | -0.0553
RRIRCRPPRLPRPRPRPRSHPRP | -0.00365
RRIRIRPPRLPRPRPRPHREPRP | -0.0487
RRIRERPPRLPRPRPRPGDQPRP | -0.0675

Sequence | shrunken log2 fold change
RRIRDRPPRLPRPRPRPVTWPRP | 0.0882
RRIRARPPRLPRPRPRPHKFPRP | -0.0967
RRIRRRPPRLPRPRPRPLQEPRP | 0.019
RRIRNRPPRLPRPRPRPWAEPRP | 0.125
RRIRPRPPRLPRPRPRPYRAPRP | -0.329
RRIRLRPPRLPRPRPRPRYSPRP | -0.087
RRIRMRPPRLPRPRPRPVMYPRP | -0.0366
RRIRHRPPRLPRPRPRPSMGPRP | -0.149
RRIRIRPPRLPRPRPRPFAHPRP | -0.241
RRIRIRPPRLPRPRPRPHSAPRP | -0.143
RRIRYRPPRLPRPRPRPSLFPRP | -0.657
RRIRFRPPRLPRPRPRPKFYPRP | -0.308
RRIRKRPPRLPRPRPRPTWLPRP | 0.638
RRIRKRPPRLPRPRPRPQNEPRP | -0.0827
RRIRARPPRLPRPRPRPPTSPRP | 0.525
RRIRWRPPRLPRPRPRPMCMPRP | 0.0952
RRIRCRPPRLPRPRPRPPPAPRP | 1.46
RRIRCRPPRLPRPRPRPWFIPRP | -0.51
RRIRSRPPRLPRPRPRPRTVPRP | 0.106
RRIRDRPPRLPRPRPRPPKMPRP | 0.166
RRIRWRPPRLPRPRPRPAMGPRP | 0.161
RRIRSRPPRLPRPRPRPFKEPRP | -0.117
RRIRVRPPRLPRPRPRPCFQPRP | -0.313
RRIRKRPPRLPRPRPRPNGSPRP | 0.0677
RRIRFRPPRLPRPRPRPFMEPRP | -0.728

Sequence | shrunken log2 fold change
RRIRERPPRLPRPRPRPYMYPRP | -0.501
RRIRPRPPRLPRPRPRPEFNPRP | 0.0717
RRIRDRPPRLPRPRPRPNTVPRP | -0.364
RRIRERPPRLPRPRPRPYYYPRP | -0.732
RRIRVRPPRLPRPRPRPCVNPRP | 0.125
RRIRKRPPRLPRPRPRPTVFPRP | 0.0385
RRIRWRPPRLPRPRPRPHGRPRP | 0.0589
RRIRDRPPRLPRPRPRPCIPPRP | -0.123
RRIRMRPPRLPRPRPRPDPYPRP | -0.0396
RRIRKRPPRLPRPRPRPTYEPRP | 0.367
RRIRERPPRLPRPRPRPSMQPRP | -0.759
RRIRCRPPRLPRPRPRPRNMPRP | 0.0316
RRIRQRPPRLPRPRPRPEIRPRP | 0.0114
RRIRFRPPRLPRPRPRPPVLPRP | 0.006
RRIRERPPRLPRPRPRPLCMPRP | -0.592
RRIRQRPPRLPRPRPRPNFCPRP | 0.117
RRIRIRPPRLPRPRPRPCAEPRP | -0.358
RRIRYRPPRLPRPRPRPERQPRP | -0.01
RRIRSRPPRLPRPRPRPYAHPRP | -0.131
RRIRCRPPRLPRPRPRPYWNPRP | -0.629
RRIRWRPPRLPRPRPRPPYRPRP | 3.11
RRIRMRPPRLPRPRPRPSNDPRP | 0.184
RRIRIRPPRLPRPRPRPREMPRP | 0.00525
RRIRTRPPRLPRPRPRPDTRPRP | -0.186
RRIRTRPPRLPRPRPRPGTCPRP | -0.00643
